Target: the molecule itself
Assay: SEC; MBP-NR2E3 LBD in solution, compared with Bio-rad Protein Standard

B1: MBP-NR2E3 LBD-His6 fusion protein (MBP–NAAAEF linker–NR2E3(217-410)-His6, C275S) (domain or fragment, human, UniProt Q9Y5X4 217-410, looked up)
chain: LDSIHETSARLLFMAVKWAKNLPVFSSLPFRDQVILLEEAWSELFLLGAIQWSLPLDSSPLLAPPEASAAGGAQGRLTLASMETRVLQETISRFRALAVDPTEFACMKALVLFKPETRGLKDPEHVEALQDQSQVMLSQHSKAHHPSQPVRFGKLLLLLPSLRFITAERIELLFFRKTIGNTPMEKLLCDMFKN
notes: Both tags are non-cleavable; Expressed from pETDuet1; also called MBP-NR2E3 fusion protein; apo NR2E3 LBD; source: E. coli BL21 (DE3), purified (Ni-chelating Hi-Trap, Superdex 200 gel filtration); not shown: MBP (joined by the linker NAAAEF), N-terminal, kept; His6, C-terminal, kept
  stoichiometry N: 2

From article PMC3771917, “The Crystal Structure of the Orphan Nuclear Receptor NR2E3/PNR Ligand Binding Domain Reveals a Dimeric Auto-Repressed Conformation” (PLoS ONE, 2013)
